Measurements from the DeepSol protein solubility set.

Test: soluble on expression in E. coli; label from the status in PepcDB or PDB records

Sequence	soluble on expression in E. coli
MNDNKILVVNAGSSSIKFQLFDYHKKVLAKALCERIFVDGFFKLEFNEQKVEEKVAFPDHHAAVTHFLNTLKKHKIIQELSDIILVGHRVVQGANYFKDSVIVDAEALAKIKEFIKLAPLHNKPEADVIEIFFKEVPSAKNVAVFDTTFHTTIPQENYLYAVPRSWEQKHLVRRYGFHGTSYKFINNYLEKHLNKQNLNLIVCHLGNGASVCAIKNGKSFNTSMGFTPLEGLIMGTRSGDLDPAIIGYVAEQENMSASDVVNALNKKSGMLALTGASDMRDVFAKPQENAVAIKMYVNRVADYIAKYLNQLEGNIDGLVFTGGIGENASDCVELFINAVKSLGFATDLKLFVKYGDSCVVSTPQSKYKIYRVRTNEELMIVEDSIRLTQK	soluble
SERGDQPKRTRNENIFNCLYKNPEATFKLICFPWMGGGSTHFAKWGQDTHDLLEVHSLRLPGRESRVEEPLENDISQLVDEVVCALQPVIQDKPFAFFGHSMGSYIAFRTALGLKENNQPEPLHLFLSSATPVHSKAWHRIPKDDELSEEQISHYLMEFGGTPKHFAEAKEFVKQCSPIIRADLNIVRSCTSNVPSKAVLSCDLTCFVGSEDIAKDMEAWKDVTSGNAKIYQLPGGHFYLLDPANEKLIKNYIIKCLEVSSISNF	soluble
MGSDKIHHHHHHMTNAAKTGVERTYEYKERINGILGMMEQAPAEQRNPVLEGLLRLIMETNERTIDCAENGKPFVSTWYGNAPEILTAMDIHFIVPVFDILLHEYFTDLYDVKEADKISLPDDICSLIRFGAYAIENKLLPRPTAIISMLEPCDAELMLHQYYQSSEHWGGVPTFGLDPAYGSTDEDFMYFAGELKRLIHFLVEITGQKYDVDKLRKVVAETNTQYELWAEYNELRRVTPCPHGSFQGSVPLWTLTQFISSGDPRATELIRMMIMDAEAKVKAGIGAVPNEQIRILWADLAPQWGDLLAPWLAEEWGANVVMDYQGYSPYTHIDTTSEDTMLYGLARRALHEVPMIRQGRGTVEVMIEDMTRIIKDYTINCVFWPGHMGHKDVSGSVHFMQELCRSLNVPLLCLTTSLFDERYTPLDKVKQQMSEFFEATGWSKNSST	not soluble
MRGSHHHHHHGSMEEYYMKLALDLAKQGEGQTESNPLVGAVVVKDGQIVGMGAHLKYGEAHAEVHAIHMAGAHAEGADIYVTLEPCSHYGKTPPCAELIINSGIKRVFVAMRDPNPLVAGRGISMMKEAGIEVREGILADQAERLNEKFLHFMRTGLPYVTLKAAASLDGKIATSTGDSKWITSEAARQDAQQYRKTHQSILVGVGTVKADNPSLTCRLPNVTKQPVRVILDTVLSIPEDAKVICDQIAPTWIFTTARADEEKKKRLSAFGVNIFTLETERIQIPDVLKILAEEGIMSVYVEGGSAVHGSFVKEGCFQEIIFYFAPKLIGGTHAPSLISGEGFQSMKDVPLLQFTDITQIGRDIKLTAKPTKE	soluble
MGSDKIHHHHHHMNTTASPSRLLGVGLYTASQASSYTGIPAKDIRRWMFGYSASGVEHPGLWAPEIAFLDDKLLGFHDLLEIRFVHAFRQHGVSLQAIRSASLQAREMFGQRYPFTCRRFQTDGRDIFATVLDETGDEALLDLVKRQYAFKQVITPSLYEGIDYAGEESAKRWYPVKRSKAVVLDPARNFGKPVLTITGIDTAAIYHSYLAEGQSAKRVALLYEIPPAAVEAAVNFEHRIAA	not soluble
MRNFDLSPLYRSAIGFDRLFNHLENNQSQSNGGYPPYNVELVDENHYRIAIAVAGFAESELEITAQDNLLVVKGAHADEQKERTYLYQGIAERNFERKFQLAENIHVRGANLVNGLLYIDLERVIPEAKKPRRIEINLEHHHHHH	soluble
MKKVSPSYLKHQFLIAMPHMHDENFAQTLTYVVEHNANGAMGLVINRPQSLTLADVLEQLRPELPAPKRCQEIAIHAGGPVQTDRGFVLHPSGQTFQATVDLPGGISLSTSQDVLFSIADGYGPDQNVITLGYAGWDAGQLDAEMADNAWLTCSFDPAILFDVDSDQRLDAAARRLGINLALISTQAGHAAAALEHHHHHH	not soluble
MPIQRREFIAAIGTGALATTAGCAQSGEGSGQTEAETEAESGGGGQPGVAGETLTLTTTTSTYDTGLLDEIHPDFEDMYGVSVDAVAQGTGAALESARNGDSDIVMVHARGLEDDFMRNGYGINRRDLMFNDFVIVGPEDDPAGIQGMGSATEALTTIAESESQFVSRGDNSGTHTKELNLWEAAGTEPGGNWYQETGTGMGEALNIANQQGAYTLSDRGTYISQRSEIDLVILVQGPIEDGPEILANPYGIMAVNPGVHDNANYDLAMAYIGWITSPGTQDAISNYQVNGEQLFFPEAVSEDPNFQQYVPEGWSSDAGE	not soluble
WMQTSDGLRIRAGHWRPEGEVRGTVLMFPGRTEYVEKYGNAAQAFVTRGFAMLAVDWRGQGLADRLLEDRRLGHVLEFTDYQRDVAAVVELATTLDLPRPWFVVGHSMGGAIGLRAVMEGLPVAACAFTGPMWGIFFTPVMKPLSWITANLAPAIGMGHKHPATTTLEPYVQAQEFEGNSLTRDPAMYEMMRSQLAAHPELALGAPTNIWLREALAECRALSDRPSPDLPCLTFLGSHEQIVDRKAVRARMARWPRGELVEIPDGEHEVLMEAPEVRDPAYDRM	not soluble
VAKPKKTQPAATAPRVDVFDAKGKPKTVDASALRIAFADGRSLLVSLPDTADGAITLVAEHADAATHAMLALRPEHHDSITLRIEAEPAAEAEDADDALAGAEMLTLDLTVQHGDALKAAARKALPKQKDIEAWIAPALFADAQLNVRFVDEEEGRTLNHTYRGKDYATNVLTFSYAETEDDPVAADIVLCCPVVEQEAKDQGKPLRAHYAHLIVHGALHAQGYDHEDPAQAEEMEGIETEVLAGLGFPDPYADR	soluble
MLGTIKPNYWIRKLSTKTSYGYRIDARAYVKVVRKTYHFLWKDSEEIVIFNPNADVGGLLYIGGLEHHHHHH	not soluble
MPVLSIISCRMFEDELAHIISSDKEMKQLIVVENKDSFGLLRKLRSDNCLPRTSPLDRVPFLLGNGHGSGFMTISKPLLILPFFRKIHEKMKIKAAQELTVVVNLLKLGLHDDIEILRSEVYKNIKEMTSFSDGILLFYCSCGGAFENLEENCLEFDCPLYWFKDGNEEVVVDCISAAIGGNAAYDELMYTCRGTGALYFTSMWASSWKEMREERKKSRNFNENYLKDPRYSRVVKLDTGLSYDPDFHKNVRDFARTFDMEIIEVKGSVELAEKSYRTAKKGVVQHTLKLEHHHHHH	not soluble
MGSDKIHHHHHHVRIAILSQGPQLYSTKRLVEAALARGHEVKVINPLKCYMNINMTKPSIHMAGKDLGHFDAVIPRIGASVTFYGSAVLRQFEMMGVYAVNGSIGIARSRDKLRSMQLLSRQGIGLPITGFANKPSDIPDLIDMVGGAPLVVKLLEGTQGIGVVLAETRKAAESVLEAFMGLKANIMVQEYIAEAQGADIRCFVLGDKVIAAMKRQAKPGEFRSNLHRGGSATLVKLTPEERSVALRAAKTMGLNIAGVDLLRSNHGPVVMEVNSSPGLEGIEKATQKDVADAIICFMEKNANKSIKSAQ	not soluble
SGGAVSAGEDNDELIDNLKEAQYIRTELVEQAFRAIDRADYYLEEFKENAYKDLAWKHGNIHLSAPCIYSEVMEALDLQPGLSFLNLGSGTGYLSSMVGLILGPFGVNHGVELHSDVIEYAKQKLDFFIRTSDSFDKFDFCEPSFVTGNCLEISPDCSQYDRVYCGAGVQKEHEEYMKNLLKVGGILVMPLEEKLTKITRTGPSAWETKKILAVSFAPLIQPCHSESGKSRLVQLRSPSFVQGWSVVVLSQLTAASTFQAEAILPSQSPTWLRLQVLATMPN	not soluble
MLPLSLLKTAQNHPMLVELKNGETYNGHLVSCDNWMNINLREVICTSRDGDKFWRMPECYIRGSTIKYLRIPDEIIDMVKEEVVAKGRGRGGLQQQKQQKGRGMGGAGRGVFGGRGRGGIPGTGRGQPEKKPGRQAGKQ	soluble
MMGYNFNEKPLLIFWETTKACGLKCEHCRASAILEALPDEMNYDESIDFLSHIKEFGKPYPIVILTGGDMLRKRRINDIMKYLKDAEIPFSVSPAVTEMLTDERIKSFLEFGVSSVSISLDGMKDVHEKVRGVPGVFDDTVRVVEKLIKEGIPMQINTVVMRSTVNDLPKVLKLILDKSVKVWEVFFLIKTGRGIDREDLSPEEYEDVNKYLLYATGYGIRIRTVESPIFRRITLQSGSTGRIEGGPLYQKLVSETEKIIGKKPSAIAKSVIPTRDGYGIIFVGHNGDVYPSGFLPYKVGNVKNQSIVDIYRKSELLRKIRDPDNLVGKCGFCEYRSVCGGSRARAFAYSSDPFGTDPSCSYMPKSVVSA	not soluble
AVKVGINGFGRIGRNVFRAALKNPDIEVVAVNDLTDANTLAHLLKYDSVHGRLDAEVSVNGNNLVVNGKEIIVKAERDPENLAWGEIGVDIVVESTGRFTKREDAAKHLEAGAKKVIISAPAKNEDITIVMGVNQDKYDPKAHHVISNASCTTNCLAPFAKVLHEQFGIVRGMMTTVHSYTNDQRILDLPHKDLRRARAAAESIIPTTTGAAKAVALVLPELKGKLNGMAMRVPTPNVSVVDLVAELEKEVTVEEVNAALKAAAEGELKGILAYSEEPLVSRDYNGSTVSSTIDALSTMVIDGKMVKVVSWYDNETGYSHRVVDLAAYIASKGL	soluble
MGSDKIHHHHHHMSASLILTLSCEDKPGIVARVTGNLFEAGGNIREAQQFDDPLSGRFFMRVVFDPAEGSVEHYRAAFAAVADHYAMEWNLRDTTVKRKVILMVSKFDHCLGDLLYRTRIGELPMDVVAILGNHPKEALNISLIGDIPYHHLPITKDTKPQQEAEVKRIVTETGAELVVLARYMQILSDDLAAFLSGRCINIHHSFLPSFKGAKPYHQAHARGVKMIGATGHYVTADLDEGPIIHQDVETVTHADSPDDLVRKGRDVERRVLAEAVRLHLEDRALVNGNKTVVFKS	not soluble
MAHHHHHHMPKEVQEKDEFFYFFNHFCFYIINETKQYALSYKMNFAFYLPYGSLGVDVLKNVFDYLHYLDVPTILDIKMNDIGNTVKHYSKFIFHYLRSDSCTANIYMGTHMLRDICLDEECKRHYSTFVLIKTTNPDSHIFQNRLSLDGKEAYVVIADEAQKMAKQLHLEENGEFVGFVVGANCYDEMKKIRELFPDCYILAPGVGAQKGDLRKTLCNGYSKNYERLLINVGRAITKSGNPQQAAREYYHQIKEILAEL	not soluble
MGFFSGQFSNVVEWEEFREDMIFWKWHNREIKRGSKLIIRPGQDAIFLFNGRIEGIFKDEGDYDIESQIIPFLSTLQGFKFGFNSGMRAEVLFVNTKEFTAKWGTKSAINIPTPQLPGGIPIRANGTFTFKVNDYVKLIDRIAGVKDSFLVEDVRLRIMALLDQLMMKWIVQEGRDMFNLQSNSFAIADGLKTDLDMQIYDMGITVSQLTIMSFTYPEEIQQMIAKAASHTMIGDMGRYQQVSVLDGIAGGKGQGGSAAADMAGMAIGMQMANEMIKGVTSPQREQTQGRGSHAPQGGSEPGLIKPNFCPNCGQKTDGANFCSNCGQKLVLEHHHHHH	soluble
MKLQTTYPSNNYPIYVEHGAIKYIGTYLNQFDQSFLLIDEYVNQYFANKFDDILSYENVHKVIIPAGEKTKTFEQYQETLEYILSHHVTRNTAIIAVGGGATGDFAGFVAATLLRGVHFIQVPTTILAHDSSVGGKVGINSKQGKNLIGAFYRPTAVIYDLDFLKTLPFKQILSGYAEVYKHALLNGESATQDIEQHFKDREILQSLNGMDKYIAKGIETKLDIVVADEKEQGVRKFLNLGHTFGHAVEYYHKIPHGHAVMVGIIYQFIVANALFDSKHDISHYIQYLIQLGYPLDMITDLDFETLYQYMLSDKKNDKQGVQMVLMRQFGDIVVQHVDQLTLQHACEQLKTYFK	soluble
